# Test results as given in IntAct's records for PubMed 12565857.
# B1: Chromobox protein homolog 5 (Mus musculus), Q61686 (parent)
# chain: MGKKTKRTADSSSSEDEEEYVVEKVLDRRMVKGQVEYLLKWKGFSEEHNTWEPEKNLDCPELISEFMKKYKKMKEGENNKPREKSEGNKRKSSFSNSADDIKSKKKREQSNDIARGFERGLEPEKIIGATDSCGDLMFLMKWKDTDEADLVLAKEANVKCPQIVIAFYEERLTWHAYPEDAENKEKESAKS
# partner: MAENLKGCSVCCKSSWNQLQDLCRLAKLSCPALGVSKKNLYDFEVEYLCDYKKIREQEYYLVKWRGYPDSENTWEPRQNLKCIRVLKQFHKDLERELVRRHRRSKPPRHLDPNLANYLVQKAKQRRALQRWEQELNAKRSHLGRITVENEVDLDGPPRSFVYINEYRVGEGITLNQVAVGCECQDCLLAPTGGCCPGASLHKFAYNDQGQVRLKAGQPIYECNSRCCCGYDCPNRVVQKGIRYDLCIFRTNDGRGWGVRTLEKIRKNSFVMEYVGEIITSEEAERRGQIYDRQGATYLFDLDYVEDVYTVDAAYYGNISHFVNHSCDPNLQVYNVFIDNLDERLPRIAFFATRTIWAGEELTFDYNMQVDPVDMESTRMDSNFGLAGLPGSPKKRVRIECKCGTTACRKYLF
# Variants of: B1
# Settings: with suv91_mouse Suv39h1, O54864
row,Variant,effect of a mutation on the interaction
1,I165E;Y168E,disrupting interaction
